Results published in patent US12594343B2, “Treatment of cancer” (INNATE PHARMA, priority 2020, dated 2026).

T1: modified Nectin-4 lacking the Ig-like V domain (the C1C2 construct) (Homo sapiens, UniProt Q96NY8)
T1 construct: having the Ig-like C2 type 1 and the Ig-like C2 type 2 domains and lacking the Ig-like V domain (the C1C2 construct); expressed in transfected cells
T1 sequence (Q96NY8 148-510): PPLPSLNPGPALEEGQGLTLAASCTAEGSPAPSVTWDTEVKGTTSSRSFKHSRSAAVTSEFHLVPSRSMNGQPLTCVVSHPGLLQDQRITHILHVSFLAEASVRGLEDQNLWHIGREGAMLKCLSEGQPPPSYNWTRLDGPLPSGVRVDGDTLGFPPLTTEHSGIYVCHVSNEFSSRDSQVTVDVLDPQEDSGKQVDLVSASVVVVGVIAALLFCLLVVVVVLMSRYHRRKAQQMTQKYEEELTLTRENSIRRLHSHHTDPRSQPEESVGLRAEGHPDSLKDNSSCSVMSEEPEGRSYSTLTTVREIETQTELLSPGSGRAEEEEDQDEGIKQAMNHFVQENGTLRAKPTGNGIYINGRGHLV

T2: wild-type human Nectin-4 protein (Homo sapiens, UniProt Q96NY8)
T2 construct: expressed in transfected cells
T2 sequence (Q96NY8 32-510): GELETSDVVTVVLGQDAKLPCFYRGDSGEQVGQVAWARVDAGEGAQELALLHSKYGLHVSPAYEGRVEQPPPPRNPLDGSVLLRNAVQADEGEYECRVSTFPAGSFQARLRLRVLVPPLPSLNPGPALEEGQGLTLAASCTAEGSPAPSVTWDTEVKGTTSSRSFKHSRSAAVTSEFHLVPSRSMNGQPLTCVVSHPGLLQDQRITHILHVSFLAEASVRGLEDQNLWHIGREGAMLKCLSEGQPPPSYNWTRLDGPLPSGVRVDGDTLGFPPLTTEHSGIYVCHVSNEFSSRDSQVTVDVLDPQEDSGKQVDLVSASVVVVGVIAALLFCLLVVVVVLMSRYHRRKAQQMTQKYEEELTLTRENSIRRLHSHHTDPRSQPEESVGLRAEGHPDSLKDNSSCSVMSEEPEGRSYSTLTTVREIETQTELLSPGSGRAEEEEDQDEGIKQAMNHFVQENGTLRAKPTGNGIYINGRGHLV

B1: N4 ADC2: Anti-Nectin-4 antibody conjugated to a second camptothecin (SN-38) containing linker (conjugate)
VH: QVQLKQSGPGLVQPSQSLSITCTVSGFSLTNYGVHWVRQSPGKGLEWLGVIWSGGSTDYNAAFISRLSISKDTSKSQVFFKMNSLQADDTAIYYCARELIHAMDNWGQGTSVTVSS
VL: DIQMTQSPASLSVSVGETVTITCRASENIYSNLAWYQQKQGNSPQLLVFAATNLADGVPSRFSGSGSGTQYSLKINSLQSEDFGTYYCQHFWGTPTFGGGTKLEIK
B2: N41: anti-Nectin-4 antibody, VH and VL of SEQ ID NOS: 9 and 10 as human IgG1 isotype (antibody, listed as Mus musculus, V domains shown)
VH: B1 VH
VL: B1 VL
modifications: human IgG1 constant regions

Legend:
[1] = target: T1, modified Nectin-4 lacking the Ig-like V domain (the C1C2 construct); type: binding; details: flow cytometry, CHO cells
Description: (§1) The characterization of the binding of the antibodies on Nectin-4 domains was performed by flow cytometry using cells made to express the wild-type human Nectin-4 protein and cells made to express a modified Nectin-4 having the Ig-like C2 type 1 and the Ig-like C2 type 2 domains and lacking the Ig-like V domain (the C1C2 construct). The latter protein additionally bears a V5 tag for flow cytometry cell sorting, and cells were used as Nectin4-C1C2-V5 sorted cells.
(§2) Wild-type Nectin-4 (the CI.3C8 cell line), a C2 construct (containing the Ig-like C2 type 2 domain and lacking both the V and the C1 domains) and the C1C2 construct allow the determination of whether test antibodies bind to the V or different C domains. Briefly, nucleic acid sequences encoding different human Nectin-4 domains were amplified by PCR. The PCR products were inserted into an expression vector at appropriate restriction sites. A leader peptide, and for C1C2 and C2 an N-terminal V5 tag having the amino acid sequence […] (SEQ ID NO: 13), were added, and expression at the surface of cells was confirmed by flow cytometry. The amino acid sequences of the resulting different human Nectin-4 domain fragment-containing proteins are shown below (V5 tag underlined). The vectors were then transfected into the CHO cell line to obtain stable clones expressing the different Nectin-4 domain proteins at the cell surface.

[2] = test system: modified Nectin-4 lacking the Ig-like V domain (the C1C2 construct); type: binding, human; details: concluded from wild-type versus C1C2 binding
Description: as §1, §2

[3] = target: T2, wild-type human Nectin-4 protein; experiment: Flow cytometry binding to CHO cells expressing wild-type Nectin-4
Description: as §1, §2

SUM185 cells = experiment: Fab-ZAP internalization assay (cell viability, CTG); type: cell-based, human; details: SUM185 (higher Nectin-4)
Description: (§3) The ability of the anti-nectin-4 antibodies to induce nectin-4 internalization was assessed on SUM190 cell lines expressing lower levels of nectin-4 and in SUM185 cells expressing higher levels of Nectin-4. […] Internalization was indirectly determined by using the Fab-ZAP human Internalization Kit (Advanced Targeting Systems) to allow the anti-Nectin-4 antibodies to target and eliminate Nectin-4 expressing cells, with measurement of cell viability using the CTG substrate (CellTiter-Glo® Luminescent Cell Viability Assay (Promega). Fab-ZAP is a chemical conjugate of goat anti-human monovalent antibody and the ribosome-inactivating protein, saporin. The antibodies used are affinity-purified polyclonal antibodies against both the heavy and light chain of human IgG. This secondary conjugate is used to evaluate the potential of a primary antibody to internalize.
(§4) Briefly, a concentration range of the antibodies or the control items was incubated on top of the SUM190 or SUM185 cells. After the incubation, the non-bound antibodies were washed away and Fab-ZAP was added on top of the cells. The newly formed complexes (anti-nectin-4 antibody+Fab-ZAP) internalized into the cells where the Saporin was released and stopped the protein synthesis leading to cell death. The internalization capability of the antibody was indirectly determined by the cells viability: the more efficient was the cell killing; the better was the internalization capability of the antibody.

SUM190 cells = experiment: as above; type: cell-based, human; details: SUM190 (lower Nectin-4)
Description: as §3, §4

[4] = test system: advanced or metastatic urothelial tract tumors; details: cited from earlier work
UC = details: cited from earlier work
pancreatic cancer = details: 349 patients; cited from earlier work
SUM190 tumor cells = experiment: ADC-induced tumor cell death, Cell Titer Glo viability at day 6; type: cell-based, human
Description: The resulting ADCs were tested for their ability to induce death of Nectin-4/Her2 expressing SUM190 and SUM185 tumor cells of Example 1. Briefly, cells were plated cells in 96 well plates (V=80 μl). N4 ADC1 and Her2 ADC1 or human IgG1-isotype control (IC)-linker-toxin or medium (conc. 5×) were tested in 1:2 serial dilution starting from (530 nM to 30 nM) and in a 1:5 serial dilution (7 nM to 7×10−2 nM) for the N4 ADC1 and isotype control. N4 ADC2 and isotype control were tested in 1:10 serial dilution starting from (530 nM to 5.3 10-2). The ADCs' ability to cause cell death was determined by assessing confluence using Incucyte S3-2 apparatus; viability at day 6 after treatment was determined using the Cell Titer Glo™ (CTG) assay with an Enspire2 apparatus. IC50 values for each ADC was determined using Luminescent Cell Viability at day 6 data with GraphPad Prism8. Experiments were repeated twice.
The anti-Nectin-4 camptothecin-analogue ADCs used were the N4 ADC1 as shown in Example 2. The anti-Her2 ADCs were also those used in Example 2 (Her2 ADC1). The ADC's ability to cause cell death was determined by assessing confluence and determining viability of SUM190 cells at day 6 as described in Example 2.

Row | Molecule | binding to C1C2 construct lacking the V domain [1] | Nectin-4 domain bound [2] | binding to whole Nectin-4 protein [3] | ability to induce internalization (SUM185 cells) | ability to induce internalization (SUM190 cells) | other results
1 | enfortumab: anti-Nectin-4 antibody, VH and VL of SEQ ID NOS: 3 and 4 as human IgG1 isotype | lost binding | within the V domain | bound to the whole Nectin-4 protein | highly potent in the ability to induce of internalization | highly potent in the ability to induce of internalization | 
2 | CC[C@@]1(O)C(=O)OCc2c1cc1n(c2=O)Cc2cc3c([N+](=O)[O-])cccc3nc2-1 [RFS2000] |  |  |  |  |  | activity in patients failing prior chemotherapy [4]: did not exert significant activity
3 | enfortumab vedotin |  |  |  |  |  | CR (complete response rate) (UC; UC patients): 12%; ORR (objective response rate) (UC; UC patients): 44%; discontinuation due to progressive disease as assessed by RECIST (UC; UC patients): 48%; discontinuation due to progressive disease by clinical symptoms (UC; UC patients): 5%; patients that discontinued experienced adverse events, notably neuropathy (UC): 18%
4 | CC[C@@]1(O)C(=O)OCc2c1cc1n(c2=O)Cc2c-1nc1cc(F)c(C)c3c1c2[C@@H](N)CC3 [exatecan] |  |  |  |  |  | efficacy of exatecan in addition to gemcitabine versus gemcitabine alone (pancreatic cancer): not superior in efficacy to gemcitabine alone
5 | B1 |  |  |  |  |  | potency in causing tumor cell death (in words) (SUM190 tumor cells): good potency
6 | B2 | lost binding | within the V domain | bound to the whole Nectin-4 protein | highly potent in the ability to induce of internalization | highly potent in the ability to induce of internalization | 
